Measured values from paper PMC10511320, “R-loop-dependent promoter-proximal termination ensures genome stability”.

Columns and labels:
SSB1 R206Q = SSB1 R206Q (human, UniProt Q9BQ15 1-211, R206Q); assay: EMSA; retains ssDNA binding; EMSA: 100 nM Cy3 probe, 20 mM Tris-HCl pH 7.5, 50 mM NaCl, 5 mM MgCl2, 0.2 mM EDTA, 1 mM DTT, on ice 30 min; 6% native PAGE, 0.5x TBE, cold room; conditions: protein: recombinant; label: 3' Cy3
SSB1 S172P/H173L = SSB1 S172P/H173L (human, UniProt Q9BQ15 1-211, S172P;H173L); assay: as above; conditions: protein: recombinant; label: 3' Cy3
[1] = biological target: SSB1;INTAC complex (Integrator-PP2A) (human;human, UniProt Q9BQ15;Q8N201;Q9H0H0;Q68E01;Q96HW7;Q6P9B9;Q9UL03;Q9NVH2;Q75QN2;Q9NV88;Q9NVR2;Q5T …, |); assay: EMSA; supershift versus SSB1 alone; EMSA: 100 nM Cy3 probe, 20 mM Tris-HCl pH 7.5, 50 mM NaCl, 5 mM MgCl2, 0.2 mM EDTA, 1 mM DTT, on ice 30 min; 6% native PAGE, 0.5x TBE, cold room; conditions: protein: recombinant;recombinant; on-column cleavage; copies: 1;1;1;1;1;1;1;1;1;1;1;1;1;1;1;1;1; label: 3' Cy3

Measured: binding result

Sequence of SSB1 R206Q (Q9BQ15 whole entry R206Q): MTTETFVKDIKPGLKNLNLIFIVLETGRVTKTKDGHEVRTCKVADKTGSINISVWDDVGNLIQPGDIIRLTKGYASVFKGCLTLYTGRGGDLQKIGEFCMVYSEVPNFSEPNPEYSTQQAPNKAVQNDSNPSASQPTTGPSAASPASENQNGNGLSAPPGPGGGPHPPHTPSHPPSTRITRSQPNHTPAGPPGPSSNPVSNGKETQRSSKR
Sequence of SSB1 S172P/H173L (Q9BQ15 whole entry S172P/H173L): as the sequence (Q9BQ15 whole entry R206Q) above, with S172P, H173L, Q206R counted along it

B1: oligo (dT)48 (ssDNA)
DNA: TTTTTTTTTTTTTTTTTTTTTTTTTTTTTTTTTTTTTTTTTTTTTTTT
binds: all assays above
